Numbering of substitutions follows the chain as printed. Like-named read-outs stand apart in the source and are kept apart here. Values belong to the binder of their own block, whether it stands above or below them.
What was measured:
[1] = target: T1, recombinant fibronectin domain 6 (UniProt P02751 1086-1172, limits assumed); test: specificity ELISA on immobilised recombinant fibronectin domain 6
T1 construct: domain: fibronectin domain 6; also called 6FN; 6-FN

[2] = target: T2, recombinant fibronectin domain 7-8-9 (without ED-B) (UniProt P02751-1 1173-1446, limits assumed); test: specificity ELISA on immobilised recombinant domain 7-8-9
T2 construct: domain: fibronectin domains 7-8-9 (without ED-B)

[3] = target: T3, recombinant fibronectin domain ED-B (His)6 (human, UniProt P02751 1266-1356); test: SPR (BIAcore), ED-B immobilised on chip (about 100 RU), Fab in flow
T3 construct: domain: ED-B; Produced by standard procedures; immobilised on ELISA plates or on the BIAcore chip; also called recombinant ED-B; human ED-B
Protocol: (§1) F1-Chips (Biacore, Sweden) were coated with about 200 RU of ED-B (30 μg/ml, 10 mmol of acetate buffer, pH 4.0) and reference flow cells with a corresponding amount of human serum albumin (20 μg/ml, 10 mmol of acetate buffer, pH 4.5) with use of standard EDC-NHS-amine-coupling chemistry. The antigen density was reduced to about 100 RU for the Fab characterization of the second maturation. The regeneration was carried out with 10 mmol of HCl. All kinetic measurements were carried out in PBS buffer (136 mmol of NaCl, 2.7 mmol of KCl, 10 mmol of Na₂HPO₄, 1.76 mmol of KH₂PO₄, pH 7.4) with a flow rate of 20 μl/minute with use of a Fab concentration range of 1.5-500 nmol. The injection period was 1 minute in each case. All sensograms were evaluated with use of BIA evaluation software 3.1.

[4] = target: T3, recombinant fibronectin domain ED-B …; test: SPR (BIAcore), ED-B immobilised on chip, Fab in flow
Protocol: as §1
The properties of twelve selected binding molecules was determined by BIAcore analysis (see Table 1). […] At least two independent measurements with Fab molecules from different batches were performed for protein expression and protein purification. The binding rate (Kₒₙ) and the dissociating-off rate (Koff) of the Fab molecule are indicated in separate columns.

[5] = target: T1, recombinant fibronectin domain 6; test: specificity ELISA on immobilised recombinant fibronectin domain 6; remark: listed apart in the source
[6] = target: T2, recombinant fibronectin domain 7-8-9 …; test: specificity ELISA on immobilised recombinant domain 7-8-9; remark: listed apart in the source
[7] = target: T3, recombinant fibronectin domain ED-B …; test: SPR (BIAcore), ED-B immobilised on chip, Fab in flow; remark: listed apart in the source
Protocol: as §1

[8] = target: T3, recombinant fibronectin domain ED-B …; test: SPR (BIAcore); ratio to parent clone MOR02619
Protocol: as §1

- binding result [1]: no binding
- binding result [2]: no binding
- Kd [3]: 0.7 nM
- koff [3]: 0.0016 s⁻¹
- kon [3]: 3.5e+06 M⁻¹ s⁻¹
B1: MOR03245 (Fab, V domains shown)
VH: QVQLQESGPGLVKPGETLSLTCTVSGGSISSYYWSWIRQAPGKGLEWIGVIHKWGFTNYNPSLKSRVTISVDTSKNQFSLKLSSVTAADTAVYYCARFFDVWGQGTLVTVSS
VL: DIVLTQPPSVSGAPGQRVTISCSGSSSNIGSNTVRWYQQLPGTAPKLLIYSNNKRPSGVPDRFSGSKSGTSASLAITGLQSEDEADYYCWTGMSYHFVFGGGTKLTVLG
notes: Fab, H-CDR2 derivative of MOR03069

- Kd [4]: 94 nM
- koff [4]: 0.014 s⁻¹
- kon [4]: 150000 M⁻¹ s⁻¹
- binding result [5]: no binding
- binding result [6]: no binding
B2: MOR02722 (Fab, V domains shown)
VH: QVQLVESGGGLVQPGGSLRLSCAASGFTFSSNAIHWVRQAPGKGLEWVSSISGSGSNTYYADSVKGRFTISRDNSKNTLYLQMNSLRAEDTAVYYCARFIASWGQGTLVTVSS
VL: DIVMTQSPLSLPVTPGEPASISCRSSQSLVHSNGYTDLNWYLQKPGQSPQLLIYLGSYRASGVPDRFSGSGSGTDFTLKISRVEAEDVGVYYCQQYSNFPFTFGQGTKVEIKR
notes: HuCAL GOLD Fab, VH3/K2

- Kd [4]: 160 nM
- koff [4]: 0.042 s⁻¹
- kon [4]: 280000 M⁻¹ s⁻¹
- binding result [5]: no binding
- binding result [6]: no binding
B3: MOR02614 (Fab, V domains shown)
VH: B2 VH with S30N, S31N, A33W, I34M, S50F, N57H, F99A, I100Y, A101D, S102V
VL: DIVLTQPPSVSGAPGQRVTISCSGSSSNIGFNYVNWYQQLPGTAPKLLIYGNSKRPSGVPDRFSGSKSGTSASLAITGLQSEDEADYYCAMFSPEGVFGGGTKLTVLG
notes: HuCAL GOLD Fab, VH3/L1

- Kd [7]: 15.4 nM
- koff [7]: 0.012 s⁻¹
- kon [7]: 780000 M⁻¹ s⁻¹
- Kd [4]: 15.4 nM
- koff [4]: 0.012 s⁻¹
- kon [4]: 780000 M⁻¹ s⁻¹
- binding result [5]: no binding
- binding result [6]: no binding
B4: MOR02619 (Fab, V domains shown)
VH: QVQLQESGPGLVKPGETLSLTCTVSGGSISSYYWSWIRQAPGKGLEWIGIGHWGSTQYNPSLKGRVTISVDTSKNQFSLKLSSVTAEDTAVYYCARFFDVWGQGTLVTVSS
VL: DIVLTQPPSVSGAPGQRVTISCSGSSSNIGSNTVRWYQQLPGTAPKLLIYSNNKRPSGVPDRFSGSKSGTSASLAITGLQSEDEADYYCQSWDGASTGVFGGGTKLTVLG
notes: HuCAL GOLD Fab, VH4/L1

- Kd [7]: 3.3 nM
- koff [7]: 0.0041 s⁻¹
- kon [7]: 1.2e+06 M⁻¹ s⁻¹
- x-Fold Improvement Relative to the Parent Clone, KD [8]: 4.8 fold
- x-Fold Improvement Relative to the Parent Clone, Koff [8]: 3.2 fold
- x-Fold Improvement Relative to the Parent Clone, Kon [8]: 1.5 fold
B5: MOR03069 (Fab, V domains shown)
VH: B4 VH
VL: B1 VL
notes: Fab, L-CDR3 derivative of MOR02619

- Kd [4]: 75 nM
- koff [4]: 0.091 s⁻¹
- kon [4]: 1.3e+06 M⁻¹ s⁻¹
- binding result [5]: no binding
- binding result [6]: no binding
B6: MOR02610 (Fab, V domains shown)
VH: QVQLVQSGAEVKKPGASVKVSCKASGYTFTGFYINWVRQAPGQGLEWMGWINPYSGNTRYAQKFQGRVTMTRDTSISTAYMELSSLRSEDTAVYYCARSPVYYKYDYWGQGTLVTVSS
VL: DIVLTQPPSVSGAPGQRVTISCSGSSGNIGINFVNWYQQLPGTAPKLLIYKNNKRPSGVPDRFSGSKSGTSASLAITGLQSEDEADYYCQSYDKTSSTYVFGGGTKLTVLG
notes: HuCAL GOLD Fab, VH1B/L1

- Kd [4]: 21.3 nM
- koff [4]: 0.0051 s⁻¹
- kon [4]: 240000 M⁻¹ s⁻¹
- binding result [5]: no binding
- binding result [6]: no binding
B7: MOR02622 (Fab, V domains shown)
VH: QVQLVESGGGLVQPGGSLRLSCAASGFTFSNYAMTWVRQAPGKGLEWVSGISYKSSSTYYADSVKGRFTISRDNSKNTLYLQMNSLRAEDTAVYYCARGLVTFDNWGQGTLVTVSS
VL: DIALTQPASVSGSPGQSITISCTGTSSDGGTYNFVSWYQQHPGKAPKLMIYRVSNRPSGVSNRFSGSKSGNTASLTISGLQAEDEADYYCSSWTHSFTDYVFGGGTKLTVLG
notes: HuCAL GOLD Fab, VH3/L2

- Kd [7]: 53.7 nM
- koff [7]: 0.047 s⁻¹
- kon [7]: 990000 M⁻¹ s⁻¹
- Kd [4]: 53.7 nM
- koff [4]: 0.047 s⁻¹
- kon [4]: 890000 M⁻¹ s⁻¹
- binding result [5]: no binding
- binding result [6]: no binding
B8: MOR02715 (Fab, V domains shown)
VH: QVQLVESGGGLVQPGGSLRLSCAASGFTFSSYGMHWVRQAPGKGLEWVSVISSSGSYIYYADSVKGRFTISRDNSKNTLYLQMNSLRAEDTAVYYCARNKVGFDVWGQGTLVTVSS
VL: DIALTQPASVSGSPGQSITISCTGTSSDGGGYNTVSWYQQHPGKAPKLMIYYVHKRPSGVSNRFSGSKSGNTASLTISGLQAEDEADYYCQAWDNQGMKYVFGGGTKLTVLG
notes: HuCAL GOLD Fab, VH3/L2

- binding result [1]: no binding
- binding result [2]: no binding
- Kd [3]: 0.03 nM
- koff [3]: 8.6e-05 s⁻¹
- kon [3]: 4.9e+06 M⁻¹ s⁻¹
B9: MOR03255 (Fab, V domains shown)
VH: B8 VH with S53N, S54R, G55S
VL: B8 VL with A92S, N95L, Q96S, G97V, M98H, K99Q, Y100V
notes: Fab, H-CDR2 derivative of MOR03062

- binding result [1]: no binding
- binding result [2]: no binding
- Kd [3]: 0.08 nM
- koff [3]: 0.0003 s⁻¹
- kon [3]: 5.3e+06 M⁻¹ s⁻¹
B10: MOR03257 (Fab, V domains shown)
VH: B8 VH with S53N, S54R, S56N
VL: B8 VL with A92S, N95L, Q96S, G97V, M98H, K99Q, Y100V
notes: as for B9

- binding result [1]: no binding
- binding result [2]: no binding
- Kd [3]: 0.07 nM
- koff [3]: 0.0002 s⁻¹
- kon [3]: 3.3e+06 M⁻¹ s⁻¹
B11: MOR03251 (Fab, V domains shown)
VH: B8 VH with S53N, S54M, G55S, S56Y, Y57T
VL: B8 VL with A92S, N95L, Q96S, G97V, M98H, K99Q, Y100V
notes: as for B9

- binding result [1]: no binding
- binding result [2]: no binding
- Kd [3]: 0.13 nM
- koff [3]: 0.0002 s⁻¹
- kon [3]: 1.6e+06 M⁻¹ s⁻¹
B12: MOR03253 (Fab, V domains shown)
VH: B8 VH with S53N, S54M, S56F, Y57E
VL: B8 VL with A92S, N95L, Q96S, G97V, M98H, K99Q, Y100V
notes: Fab, H-CDR2 derivative

- binding result [1]: no binding
- binding result [2]: no binding
- Kd [3]: 0.03 nM
- koff [3]: 6.1e-05 s⁻¹
- kon [3]: 3.1e+06 M⁻¹ s⁻¹
B13: MOR03252 (Fab, V domains shown)
VH: B8 VH with S53N, S54Y, G55S, S56W, Y57H
VL: B8 VL with A92S, N95L, Q96S, G97V, M98H, K99Q, Y100V
notes: as for B9

- Kd [4]: 477 nM
- koff [4]: 0.2 s⁻¹
- kon [4]: 430000 M⁻¹ s⁻¹
- binding result [5]: no binding
- binding result [6]: no binding
B14: MOR02618 (Fab, V domains shown)
VH: QVQLVESGGGLVQPGGSLRLSCAASGFTFNNYGMTWVRQAPGKGLEWVSSIYGYGSNTYYADSVKGRFTISRDNSKNTLYLQMNSLRAEDTAVYYCARNYWVFAYWGQGTLVTVSS
VL: DIELTQPPSVSVAPGQTARISCSGDNIPGKSVHWYQQKPGQAPVLVIYGKMNRPSGIPERFSGSNSGNTATLTISGTQAEDEADYYCQSYDNFNDSVVFGGGTKLTVLG
notes: HuCAL GOLD Fab, VH3/L3

Reference: US20060115428A1 (MorphoSys, published 2006)
